# Experimental data as given in publication PMC4608377, “Substrate specificity and transport mechanism of amino-acid transceptor Slimfast from Aedes aegypti” (Nature Communications, 2015).
# B1: AaSlif (=AaCAT3; Slimfast) (Aedes aegypti) (protein)
# chain: MRQGGRIDRFWIALTRKKRNEDDGSDSQLARVLSLLDLTGLGVGSTLGLGVYVLAGSVAYEQAGPAVVISFLVAAVASAIAALCYAEFAARVPKAGSAYIYSYVSIGEFAAFTIGWNLILEYVIGTSSVARGMSGYIDELAGKKISTALKETMGMNVDFLSDYPDFFSFVVVLILAALLAYGVKESTLMNNIFTGVNLCVIAIVLVAGGMNCDPANWMIKPEDIPKGIDAGVGGFAPYGFAGIMAGAAKCFYGFVGFDCIATTGEEAKNPSRNIPLAIVISLIIIFLAYFGISTVLTMALPYYLQNPDAPFPHLFEQLEWHAIKWIVSIGAIFALCTSLLGAMFPLPRVLYAMSTDGIIYKKLRTVHPKTQTPVLATILAGLLAATMAMLFNLQQLIDMMSIGTLLAYTIVAVSVLVLRYEDQTLMQSATVTIPNVFRQVFNVDKLKSPTTLSSSIVKFGICIFALLVCAVCTILVLATDELSAEYPGTLAAISVLGACMVFLIIVTALQPTENTKLTFKVPLVPLLPMLSVFFNLYLMFQLDAGTWVRFAVWIVIGYLIYFTYGIKHSVEGAIAKQAAVNGNGITIVKNGIDNNAFDGSNDKFVSTVPAENPRKSSKNSYSLNNE
# notes: full length, 626 residues (1,881-nt ORF); Xenopus codon-optimised (synonymous) in pXOOM, without tag or with C-terminal eGFP (used interchangeably); cRNA expressed in Xenopus laevis oocytes
# Key:
# Details in all cases: high-affinity site of two-site fit (apparent dissociation constant); 98 mM Na+ buffer; holding voltage -50 mV
# [1] = substrate: N=C(N)NCCC[C@H](N)C(=O)O; test: two-electrode voltage clamp, substrate-induced currents in Xenopus oocytes, two-site saturation fit; format: cell-based, Aedes aegypti
# [2] = substrate: N[C@@H](Cc1ccccc1)C(=O)O; test: as above; format: cell-based, Aedes aegypti
# [3] = substrate: NCCC[C@H](N)C(=O)O; test: cells, lysate or membranes
protein,measurement,setting,value
B1,K0.5,[1],5.2 ± 1.4 µM
same,K0.5,[2],15.6 ± 8.5 µM
same,K0.5,[3],13.8 ± 6.2 µM
